Results from PMC7199855, “GRAF2, WDR44, and MICAL1 mediate Rab8/10/11–dependent export of E-cadherin, MMP14, and CFTR ΔF508” (The Journal of Cell Biology, 2020).

Experiments:
[1] = target: T1, GST–WDR44 ΔC (human, UniProt Q5JSH3 1-472); assay: pull-down; in vitro: GST-tagged WDR44 or MICAL1 domains on glutathione sepharose beads with an equal amount of Thrombin-released GRAF2 SH3, 30 min 4°C, washed in bacterial lysis buffer (20 mM Hepes pH 7.4, 1 mM DTT, NaCl); Coomassie staining; conditions: both partners purified
T1 construct: aa 1–472 of human WDR44 (N-tag clone: forward primer begins at codon 2); source: E. coli BL21(DE3) pLysS, purified on glutathione sepharose beads; not shown: GST, N-terminal, kept
T1 sequence (looked up): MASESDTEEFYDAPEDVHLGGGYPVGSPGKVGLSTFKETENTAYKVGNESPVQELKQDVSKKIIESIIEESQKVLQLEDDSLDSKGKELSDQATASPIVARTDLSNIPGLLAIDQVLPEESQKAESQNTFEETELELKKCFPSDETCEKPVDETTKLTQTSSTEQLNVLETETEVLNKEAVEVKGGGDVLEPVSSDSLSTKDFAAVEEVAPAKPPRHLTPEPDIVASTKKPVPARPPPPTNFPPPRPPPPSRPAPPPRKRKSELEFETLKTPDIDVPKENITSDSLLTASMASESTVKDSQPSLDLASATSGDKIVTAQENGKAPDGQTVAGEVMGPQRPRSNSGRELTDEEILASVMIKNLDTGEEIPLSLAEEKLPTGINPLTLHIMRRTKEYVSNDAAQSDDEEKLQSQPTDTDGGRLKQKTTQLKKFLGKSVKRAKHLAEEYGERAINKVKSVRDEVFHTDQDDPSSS

[2] = target: T2, GST–MICAL1 ΔMOΔCH (human, UniProt Q8TDZ2 651-1067); assay: as above; conditions: both partners purified
T2 construct: aa 651–1067 of human MICAL1; source: E. coli BL21(DE3) pLysS, purified on glutathione sepharose beads; not shown: GST, N-terminal, kept
T2 sequence (looked up): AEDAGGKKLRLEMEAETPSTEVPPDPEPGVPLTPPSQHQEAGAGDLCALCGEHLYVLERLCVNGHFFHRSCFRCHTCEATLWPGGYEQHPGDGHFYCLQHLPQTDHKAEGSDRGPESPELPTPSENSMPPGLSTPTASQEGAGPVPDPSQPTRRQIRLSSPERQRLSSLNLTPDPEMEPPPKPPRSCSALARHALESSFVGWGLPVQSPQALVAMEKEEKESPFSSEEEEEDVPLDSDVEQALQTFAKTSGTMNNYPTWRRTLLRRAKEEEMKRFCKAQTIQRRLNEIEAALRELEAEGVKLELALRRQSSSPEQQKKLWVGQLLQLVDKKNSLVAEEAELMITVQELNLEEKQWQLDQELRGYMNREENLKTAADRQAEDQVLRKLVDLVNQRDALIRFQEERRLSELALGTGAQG

binding result [1]: binds
binding result [2]: binds
B1: GRAF2 SH3 (released from GST by Thrombin) (domain or fragment, human, UniProt A1A4S6 718-786, looked up)
chain: ATVADKPPESIRSRKARAVYPCEAEHSSELSFEIGAIFEDVQTSREPGWLEGTLNGKRGLIPQNYVKLL
notes: SH3 domain construct, aa 718–786 of human GRAF2; same construct as m2 with GST cut off; source: E. coli BL21(DE3) pLysS; released from GST-GRAF2 SH3 beads with Thrombin; not shown: GST, N-terminal, cleaved
